Source: patent US20240352132A1

Experiments:
[1] = biological target: human EGFR protein extracellular domain with the His tag (human) (UniProt P00533); assay: SPR Biacore T200, antibody captured on Protein A, antigen in flow, 1:1 fit
[2] = biological target: HGFR protein extracellular domain with the His tag (human) (UniProt P08581); assay: as above
[3] = biological target: HGFR protein extracellular domain with the His tag (human) (UniProt P08581); assay: competition ELISA, blocks bio-HGF-His on coated HGFR-His

In the case of MCLA (bispecific antibody), the Kd [1] is reported as 69.1 nM, the koff [1] is reported as 0.00473 s⁻¹ and the kon [1] is reported as 68500 M⁻¹ s⁻¹. The Kd [2] was 10.3 nM, the koff [2] was 0.000303 s⁻¹ and the kon [2] was 29500 M⁻¹ s⁻¹. For the same substance, the IC50 [3] was 1.36 µg/mL and the Max (%) [3] was 94.1%.
